# Measured values as given in article PMC8304084, “A Concerted Action of UBA5 C-Terminal Unstructured Regions Is Important for Transfer of Activated UFM1 to UFC1” (International Journal of Molecular Sciences, 2021).
# Where two headings read alike, the source gives them in different places.
# Tests used:
# [1] = target: Full length UFC1, residues 1–167 (UniProt Q9Y3C8); experiment: ITC; VP-ITC, 25 °C; UBA5 peptides (~400 µM) titrated into 20–25 µM binding partner; 25 mM HEPES pH 7.5, 100 mM NaCl; one-site model; a single profile for each interaction
# [2] = target: Full length UFC1, residues 1–167 (UniProt Q9Y3C8); experiment: as above; remark: listed apart in the source
binder,measurement,setting,value
"GAMEDSGESLEDLMAKMKNM [UBA5 C-terminal region R3, residues 388–404]",Ka,[1],30000 M⁻¹
same,Kd,[1],10 µM
same,dH,[1],-4.99 kcal/mol
same,stoichiometry N,[1],0.95
same,Kd,[2],> 11 µM
